These results are taken from patent US9321838B2, “Therapy targeting cathepsin S” (Fusion Antibodies Limited, priority 2006, dated 2016).

Data set [1] deals with human microvascular endothelial cells (HMECs). Nature of the data set: Matrigel capillary-like tube formation assay. It is filed as cell-based. Here is the method: The effect of the CatS mAb on endothelial cell tube formation was assessed as follows. Two hundred microliter of Matrigel (10 mg/ml) was applied to pre-cooled 48-well plates, incubated for 10 min at 4° C. and then allowed to polymerize for 1 h at 37° C. Cells were suspended in endothelial growth cell medium MV (Promocell), containing 200 nM of the appropriate antibody. Five hundred microliter (1×10^5 cells) were added to each well. As controls, cells were incubated with vehicle-only control medium containing the appropriate volumes of PBS. After 24 h incubation at 37° C. and 5% CO2, cells were viewed using a Nikon Eclipse TE300 microscope.
Using the Matrigel morphogenesis assay described by Grant et al (Cell 1989 Sep. 8; 58 (5): 933-43), capillary-tubule formation assays were performed with human microvascular endothelial cells (HMECs) cultured on Matrigel enabling the endothelial cells form tube-like structures, with invasive sprouts extending from individual cells to form contacts with nearby endothelial cells. FIG. 15a illustrates the results when the HMEC cells were cultured in the presence of two CatS antibodies (1E11 and 1E4) or isotype control.

For data set [2], the target named is T1, CatS (Homo sapiens, UniProt P25774). Nature of the data set: fluorimetric assay of CatS proteolytic activity. Format: biochemical. From the text: The ability of an agent, for example a small molecule or antibody, to inhibit the proteolytic activity of Cathepsin S may be tested using any suitable method. For example a fluorimetric assay may be used. In such an assay, any suitable fluorigenic substrate may be used, for example Cbz-Phe-Arg-AMC. An agent is considered to inhibit the proteolytic activity of Cathepsin S if it has the ability to inhibit its activity by a statistically significant amount. For example, in one embodiment, an agent for use as the Cathepsin S inhibitor is able to inhibit the […] activity by at least 10%, for example at least 25%, 50%, 70%, 80% or 90%, when compared to an appropriate control antibody.
T1 sequence (P25774 115-331): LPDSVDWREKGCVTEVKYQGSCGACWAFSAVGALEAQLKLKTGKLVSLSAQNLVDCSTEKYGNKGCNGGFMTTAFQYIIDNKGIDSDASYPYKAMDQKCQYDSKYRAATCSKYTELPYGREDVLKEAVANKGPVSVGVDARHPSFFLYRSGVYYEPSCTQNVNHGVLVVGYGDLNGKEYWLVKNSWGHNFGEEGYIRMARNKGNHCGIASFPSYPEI
As shown in co-pending PCT application WO2006/109045, the contents of which are incorporated herein by reference, which claims priority from GB0507219.4 and GB0507272.3, this antibody has potent inhibitory activity.
(§1) The F47 Cathepsin S 1C11 1E11 1E4 cell line which is the hybridoma cell line that produces the IE4 antibody has been deposited with the European Collection of Cell Cultures (“ECACC”) under Accession No. 15072905.

For another data set, the system named is other cathepsins. Nature of the data set: binding specificity / cross-reactivity with other cathepsins. Conditions: in particular those with the greatest homology to CatS.
Excerpt: as §1

In another data set the test system is rat aortic ring segments. Nature of the data set: ex vivo rat aortic arch (ring) assay in Matrigel. It is filed as cell-based. Here is the method:
Male Wistar rats are euthanised and the thoracic aorta is aseptically removed and sectioned into […] thick rings. The rings are washed ten times in sterile medium to remove any bacteria and embedded into Matrigel on 24 well plates. The wells are supplemented with 2 ml of medium and increasing concentrations of antibodies. The plate is incubated for 8 days and post incubation the Matrigel and rings are fixed in 4% PBS buffered paraformaldehyde and stored in PBS. The extent of vessel development is blindly assessed microscopically by an independent investigator and quantified using a calibrated eyepiece graticule (1 mm/100 μm graduation) at 20× magnification (Olympus BX 50). The extent of vessel length, maximum vessel length and number of vessels in each field of view is measured and compared to time matched sham controls and the % inhibition calculated.
To evaluate further the role of CatS in angiogenesis, an ex vivo rat aortic arch assay was performed. Sections of the aorta (1 mm) were cultured within a thin layer of Matrigel in the presence of the inhibitory antibody and appropriate controls. The formation of tube-like vessels from the aorta were monitored and quantified after 7 days by measuring the reduction in the number of vessels, mean vessel length and maximum vessel length compared to controls.

For data set [3], the system named is MCF 7 breast cancer cell line. Conditions: shown in co-pending WO2006/109045; cited from earlier work.
Data set [4] deals with MDMB231 breast cancer cell line. Conditions: shown in co-pending WO2006/109045; cited from earlier work.
Data set [5] concerns HCT116+/+ human colorectal adenocarcinoma xenograft. Nature of the data set: HCT116+/+ xenograft model, immunohistochemistry of tumour sections. It is filed as in vivo, SCID mice. As to conditions: CatS 1E11+5Fu (IC50) vs Mouse IgG1+5-Fu control.
Protocol: Briefly, sections were deparaffinised by passing from xylene to alcohol to running water. Endogenous peroxidase activity was blocked by incubation in 3% H2O2 in methanol for 10 min. Sections were then boiled in citrate buffer, pH6.0, for 22 min. Incubation in 5% normal horse serum blocking solution was carried out for 20 min at room temp. Sections were incubated with primary antibody at 4° C. overnight. Appropriate isotype controls were used at the same dilutions as primary antibodies. […]
The target of data set [6] is T1, CatS. As to conditions: fluorigenic substrate; shown in co-pending WO2006/109045; cited from earlier work.
Data set [7] has as its system PC3 prostate carcinoma cell line. Conditions: shown in co-pending WO2006/109045; cited from earlier work.
For data set [8], the target named is T2, CatS on the cell surface of HCT116 cells (Homo sapiens, UniProt P25774).
T2 construct: CatS expression is localised to the cell surface on HCT116 cells; endogenous in cells; host or cells: HCT116
T2 sequence (P25774 115-331): as above
Nature of the data set: flow cytometry staining of HCT116 cells with CatS monoclonal antibody. Conditions: HCT116 cells stained for CatS. Format: binding. As to the method: Cells were collected from tissue culture plates using a scraper and washed ×3 in PBS (0.01% tween) (5 minute centrifugation at 1500 rpm). Approximately 5×10^5 cells were placed in appropriately labelled tubes. Cells were incubated with 50 μl anti-CatS or Isotype control (Sigma, UK) for 1 hour at room temperature. Following incubation each tube was washed ×3 in PBS (0.01% tween) (5 minute centrifugation at 1500 rpm). Samples were then incubated with a 1 in 15 dilution of FITC-conjugated goat anti-mouse secondary antibody (Sigma, UK) (samples kept in dark at room temperature). Following incubation each tube was washed ×3 in PBS (0.01% tween) (5 minute centrifugation at 1500 rpm). Samples were resuspended in 0.5 ml of PBS prior to immediate analysis using the Cyan flow cytometer (Dako, UK).
HCT116 cells were stained for CatS expression using a CatS monoclonal antibody as before. Cells were grown on glass coverslips, fixed using ice-cold acetone and incubated with CatS antibody at a 1:100 dilution. Coverslips were rinsed with PBS and incubated with antimouse AlexaFluor® 488 labelled secondary antibody. Coverslips were washed again using PBS, mounted using PermaFluor mounting media and visualised by confocal microscopy.
The presence of Cathepsin S on the cell surface of tumour cells was further confirmed using confocal microscopy. […]
Background: In flow cytometry, cells or beads pass a laser one at a time.

The subject of data set [9] is U251mg astrocytoma cell line. As to conditions: shown in co-pending WO2006/109045; cited from earlier work.
Data set [10] concerns HCT116 colorectal carcinoma cell line. Conditions: shown in co-pending WO2006/109045; cited from earlier work.
The nature of data set [11]: examination of major mouse organs after treatment in xenograft model. Format: in vivo, SCID mice. Here is the method:
6-8 week old female SCID mice were implanted with 2×10^6 HCT116+/+ human colorectal adenocarcinoma cells into each flank. […] They were mixed with equal volumes of matrigel to give a final concentration of 5×10^6 cells/ml. Mice were randomly separated into treatment groups on day 5 after implantation and treated with various regimes of CatS Mab or Isotype control Mab (10 mg/kg) with/without 5Fu (15 mg/kg daily or 70 mg/kg twice weekly). All drugs were administered through a bolus injection. Animals were sacrificed at various time points and tumours were removed for analysis.
Paraffin embedding of formalin-fixed xenograft/organ tissue samples, section cutting and H&E (haematoxylin and eosin) staining of tissue sections were performed as previously described. Immunostaining was performed using the avidin-horseradish peroxidase method (Vectorlabs ABC Kit).
All major mouse organs were examined for architectural changes following treatment.

[12] abbreviates: repeat experiment, up to 10 μg/ml.

B1: 1E11: Cathepsin S inhibitory monoclonal antibody; VH Seq ID No: 7, VL Seq ID No: 8, CDRs Seq ID Nos: 1-6 (antibody, listed as Mus musculus, V domains shown)
VH: VQLQESGGVLVKPGGSLKLSCAASGFAFSSYDMSWVRQTPEKRLEWVAYITTGGVNTYYPDTVKGRFTISRDNAKNTLYLQMSSLKSEDTAMYYCARHSYFDYWGQGTTVTVSS
VL: DVLMTQTPLSLPVSLGDQASISCRSSQSLVHSNGNTYLHWYLQKPGQSPKLLIYKVSNRFSGVPDRFSGSGSGTDFTLKISRVEAEDLGVYFCSQTTHVPPTFGSGTKLEIKR
modifications: VH domain amino acid sequence; VL domain amino acid sequence
In the case of B1, the “tube formation of HMEC cells on Matrigel” value in data set [1] (antibody 200 nM, 24 h, vs vehicle-only and isotype control) was “almost completely abolished”. In addition, in data set [1] (summary statement, no concentration given), the “capillary tubule formation in Matrigel assay” value was “inhibit capillary tubule formation”. The “ability to inhibit the catalytic activity of CatS” value with CatS [2] is on record as “can specifically inhibit the activity of CatS”. Further, in the data set on other cathepsins, the “cross-reactivity with other cathepsins” value is recorded as “no cross-reactivity with other cathepsins”. The “reduction in maximum vessel length” value was 60% in the data set on rat aortic ring segments (setting [12]) and “greater than 80%” in the data set on rat aortic ring segments (up to 600 nM). In addition, the “reduction in mean vessel length” value in the data set with rat aortic ring segments (setting [12]) is 60%; in the data set on rat aortic ring segments (up to 600 nM), “greater than 80%”. In addition, the entries for the “reduction in total vessel number” value in the data set with rat aortic ring segments (setting [12]) and in the data set on rat aortic ring segments (up to 600 nM) were 70% and “greater than 80%”, respectively. In addition, the “inhibition of tumour cell invasion” value in data set [3], in data set [4], in data set [7], in data set [9] and in data set [10] was “potently inhibit tumour cell invasion” throughout. Besides, the “caspase 3 activity in tumour tissue (anti-cleaved caspase-3 staining)” value in data set [5] is listed as “increase in caspase 3 activity”. Besides, the “inhibition of proteolytic activity of CatS” value in the data set with CatS [6] is “inhibits the proteolytic activity of CatS”. Also, the “increase in fluorescent intensity in comparison to the isotype control” value in data set [8] turned out to be 38%. The “architectural / pathological change of major mouse organs” value in data set [11] (nine-day drug regime CatS 1E11+5Fu (IC50)) was “No signs of pathological change”. Moreover, the adverse toxic effect result in data set [11] (repeated treatment with 10 mg/kg in combination with chemotherapy) was “no adverse toxic effect”.
